Results from paper PMC10313165.

Experiments:
[1] = target: rat CaMKIIα holoenzyme with pT286 (rat (Rattus norvegicus)) (UniProt P11275); assay: high-speed atomic force microscopy; 50 nM CaMKII and 800 nM CaM premixed in buffer B with 1 mM CaCl2 and 1 mM ATP, 30 °C, 5 min; imaged in buffer A with 1 mM CaCl2 and 1 mM ATP on pillar[5]arene-modified mica, 24-26 °C
[2] = target: rat CaMKIIα holoenzyme (wild type, not phosphorylated) (rat (Rattus norvegicus)) (UniProt P11275); assay: high-speed atomic force microscopy; 50 nM CaMKII and 800 nM CaM premixed in buffer B (50 mM tris-HCl pH 7.4, 150 mM KCl, 10 mM MgCl2) with 1 mM CaCl2, 30 °C, 5 min, no ATP; imaged in buffer A with 1 mM CaCl2 on pillar[5]arene-modified mica, 24-26 °C

fraction of Ca^2+/CaM bound longer than 60 s [1]: 77.3%
fraction of Ca^2+/CaM bound longer than 60 s [2]: 41.1%
Substance: rat calmodulin, 6xHis-tagged (Ca^2+-bound in the assays) (from UniProt P0DP29 1-149) (natural protein; other documents disagree on this pair)
